Patent US20240076389A1 (NATIONAL RESEARCH COUNCIL OF CANADA, published 2024)

T1: recombinant human AXL extracellular domain, C-terminally His8-tagged (rhAXL-ECD) (human, UniProt P30530 26-451)
T1 construct: Made in CHO cells; also called (rh)AXL-ECD His8; human AXL ECD
T1 sequence: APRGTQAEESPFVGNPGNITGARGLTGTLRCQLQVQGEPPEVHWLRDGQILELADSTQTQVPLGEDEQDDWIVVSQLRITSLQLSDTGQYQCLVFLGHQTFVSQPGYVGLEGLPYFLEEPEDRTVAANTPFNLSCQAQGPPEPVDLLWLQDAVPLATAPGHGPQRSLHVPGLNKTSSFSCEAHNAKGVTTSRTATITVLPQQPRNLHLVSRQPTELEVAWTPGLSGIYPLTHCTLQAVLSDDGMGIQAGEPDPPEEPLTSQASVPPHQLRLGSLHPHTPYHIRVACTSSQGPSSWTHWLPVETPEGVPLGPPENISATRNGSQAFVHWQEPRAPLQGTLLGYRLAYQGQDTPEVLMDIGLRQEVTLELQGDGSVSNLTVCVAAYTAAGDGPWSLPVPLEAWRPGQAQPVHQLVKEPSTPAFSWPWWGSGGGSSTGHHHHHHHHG

T2: human AXL expressed on the cell surface of tumor cell lines (human, UniProt P30530 26-894)
T2 construct: whole, on cells; also called cell surface-expressed AXL; cell-based AXL
T2 sequence (looked up): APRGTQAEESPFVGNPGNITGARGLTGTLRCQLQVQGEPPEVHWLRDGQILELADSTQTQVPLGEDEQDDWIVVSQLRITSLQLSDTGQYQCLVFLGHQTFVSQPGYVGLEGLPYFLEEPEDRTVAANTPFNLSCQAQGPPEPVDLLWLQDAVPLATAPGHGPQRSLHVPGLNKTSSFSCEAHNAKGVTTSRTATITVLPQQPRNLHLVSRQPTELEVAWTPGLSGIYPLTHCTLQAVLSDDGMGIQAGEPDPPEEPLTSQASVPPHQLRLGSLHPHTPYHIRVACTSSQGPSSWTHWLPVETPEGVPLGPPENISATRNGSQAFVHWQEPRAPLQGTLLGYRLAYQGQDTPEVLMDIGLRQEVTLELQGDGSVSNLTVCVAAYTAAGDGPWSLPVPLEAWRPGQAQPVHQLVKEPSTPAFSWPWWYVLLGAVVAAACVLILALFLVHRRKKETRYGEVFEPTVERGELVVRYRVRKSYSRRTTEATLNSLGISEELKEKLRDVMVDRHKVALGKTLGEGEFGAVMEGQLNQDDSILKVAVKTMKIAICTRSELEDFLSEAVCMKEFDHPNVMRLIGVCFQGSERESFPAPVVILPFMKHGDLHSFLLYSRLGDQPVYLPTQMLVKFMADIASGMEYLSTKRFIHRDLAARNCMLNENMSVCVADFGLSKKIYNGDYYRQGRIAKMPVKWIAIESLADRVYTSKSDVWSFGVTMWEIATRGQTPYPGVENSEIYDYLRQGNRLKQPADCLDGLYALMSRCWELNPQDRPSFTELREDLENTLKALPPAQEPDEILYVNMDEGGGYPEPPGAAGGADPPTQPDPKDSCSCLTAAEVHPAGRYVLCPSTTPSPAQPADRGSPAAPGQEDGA


Assays:
[1] = molecular target: T3, recombinant cynomolgus AXL extracellular domain (cynomolgus); assay: SPR, VHH-Fc captured, AXL ECD flowed, single-concentration kinetics (estimate)
T3 construct: range 1-449; also called Cyno AXL; cyno AXL ECD
Protocol: (§1) For VH Hs and VHH-Fcs, binding to human and cynomolgus AXL ECD was assessed using either a Biacore T200 instrument or a Biacore 3000 instrument. Either human AXL ECD or anti-human Fc antibody was immobilized on a research-grade CM5 series S sensor chip (T200, rhAXL ECD) or a C1 sensor chip (3000, anti-human Fc) using amine coupling in acetate buffer. VHH-Fcs were captured on anti-human Fc surfaces. Either monomeric VHHs (for rhAXL ECD surfaces) or human and cyno AXL ECD (for VHH-Fc surfaces) were flowed over the surfaces at different concentration ranges. Running buffers were HBS-EP (3000) and HBS-EP+(T200). Flow rates were 10-40 ul/min. All binding studies were performed at 25° C. Surfaces were regenerated using 10 mM glycine, pH 1.5.

[2] = molecular target: T1, recombinant human AXL extracellular …; assay: as above
Protocol: as §1

[3] = molecular target: T2, human AXL expressed on the cell surface …; assay: FACS on MDA-MB-231 luciferase cells, apparent Kd
Protocol: FACS binding assay. Adherent cells were dissociated with non-enzymatic Sigma Cell Dissociation Solution (Cat. No. C5789). Cells suspensions were added to polypropylene, V-bottom 96-well plates and incubated for 2 hours on ice with primary antibodies at concentrations ranging from 100 nM to 0.001 nM or at a single dose of 100 nM (for the non-specific control). After incubation and washes, cells were incubated with fluorescently labeled secondary antibody (Alexa Fluor® 488 anti-human IgG from Jackson Cat. No 709-546-098) for 1 hour on ice, then washed. Cell viability was determined using Fixable viability dye 450 (20 min on ice). Stained cells were fixed in 1% formaldehyde at 4° C. and stored at 4° C. until acquisition which was performed the next day.
Binding of recombinant chimeric Abs to three cell lines was assessed by FACS as described above. The apparent Bmax and Kd determination is shown below in Table 14.

[4] = molecular target: T1, recombinant human AXL extracellular …; assay: ELISA on coated AXL ECD (100 ng/well), HRP-protein A
Protocol: ELISA. ELISAs against human, cyno and mouse AXL ECDs were conducted by immobilizing 100 ng of each protein in wells of Nunc MaxiSorp microplates overnight. Human AXL (aa 1-451) and cyno AXL (aa 1-449) were produced recombinantly as described in Example 10. Mouse AXL was purchased from Sino (cat. 51026-M08H). The next day, plates were blocked with 5% (w/v) dried milk in PBS. Murine mAbs (either hybridoma- or recombinantly-produced) or VHH-Fcs were diluted in PBS containing 1% BSA and 0.1% Tween-20 and added to wells for 2 hours at room temperature. Wells were washed 5× with PBS containing 0.1% Tween-20, then HRP-labeled protein A (diluted 1:1000 in PBS containing 1% BSA and 0.1% Tween™-20) was added to wells for 1 hour at room temperature. Wells were washed again 5× with PBS/0.1% Tween-20 and developed using TMB substrate. Absorbance was measured at 450 nm. As a positive control for mouse AXL binding, a commercial anti-mouse AXL mAb (clone 175128, R&D Systems MAB8541, rat IgG2A) was used and detected with donkey […] secondary antibody.

Row | Binder | Kd [1] | koff [1] | kon [1] | Kd [2] | koff [2] | kon [2] | Kd [3] | EC50 [4]
1 | NRC-sdAb001-Fc (VHH-human IgG1 Fc fusion) (Fc fusion, VHH fused N-terminally to human IgG1 Fc, made in HEK293 cells; also called NRC-sdAb0001-Fc; NRC-sdAb001-hIgG1; not shown: human IgG1 Fc) QVKLEESGGGLVQAGGSLRLSCTASASISSFDIMGWYRQAPGKQRELVAAITTLDIANYRDSVKGRFTISRDNAKNTVYLQMDSLKPEDTARYHCAAFQSDQNYWGQGTQVTVSS | 8 nM | 0.0072 s⁻¹ | 920000 M⁻¹ s⁻¹ | 6 nM | 0.0072 s⁻¹ | 1.3e+06 M⁻¹ s⁻¹ |  | 
2 | hFC-F107-10G1 (antibody, human IgG1, kappa, V domains shown, Chimeric mAb, human IgG1 / human kappa constant regions; also called mAb F107-10G1) VH: EVNLVESGGGVVKPGASLKLSCEASGFTFSNYGMSWVRQTSDKRLEWVASISGGGGRTYYLDNVKGRFIISRENAKNTLYLQMSSLKSEDTALFYCARGARASYFAMDYWGQGSSVTVSS VL: VIVMTQSHKFMSTSVGDRVSITCKASQDVTTAVAWYQQKPGQSPKLLIYWASTRHTGVPDRFTGSGSGTDYSLTISNVQTEDLAFYYCQQHFTTPLTFGAGTKLELKR |  |  |  |  |  |  | 0.101 nM | 2 nM
